Test results taken from the nanobody polyreactivity screen of Harvey et al. (2022).

experiment: yeast display, Sf9 membrane polyspecificity reagent, FACS + sequencing; frameworks hold sequencing errors
How it was run: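 Sorting gates, low and high (top ~1%), were placed on anti-HA fluorescence to track expression and on streptavidin fluorescence to track reagent binding. A clone's polyreactivity label is taken from the gate it came out of. The reagent was 10% biotinylated, detergent-solubilized Sf9 membrane, applied for 1 hour at 4 °C to galactose-induced yeast display cells.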

Sequence	polyreactivity (PSR sort gate)
QVHLVESGGGLVQAGGSLRLSFAAYGIIFKYYAMVWYRQAPGKERELVASITDRGGSTYYSDSLKGRFTISRDNAKNTFYLQMNSLKPEDTAVYYCAAVPSTGKSGIRGGYWGQCTQVTVSS	high polyreactivity
QVHLVESGGGLVQAGGSLRLSSAASGITFVINAMGWYRQAPGKERELVASINFDTDTTYADSEKGRFTISRDNAKNTVYLQMNSLKPEDTAVYYCNADLPWARHTVDSIEFDYWGQGTQVTVSS	low polyreactivity
QVHLVESGGGLVQAGGSLRLSSPASGRIFQDNAMGWYRQAPGKERELVAAISSSGGSTYYADSVKGRFTISRDNAKNTVYLHMNSLKPEDTAVYYCAADYYWYWDLYDYWGQGTQVSVSS	high polyreactivity
QVHLVESGGGLVQAGGSLRLTCAASGFTFQGYAMGRYRQAPGKERELVAAISIGGVRTYYADSVKGRFTISRDNAKNTVYLQMNSLKPEDTAVYYCAKDGSKLSSYNYWGQGTQVTVSS	high polyreactivity
QVHLVESGGGLVQAGGSLRLTCAASGIIFRWYAMGWYRQAPGKERELVAAISSGGGRTHYADSVKGRFTISRDNAKNTVYLQMNSLKPEDTAVYYCAAALRGQSSRFDYWGQGTQVTVSS	high polyreactivity
QVHLVESGGGLVQAGGSLRLTCAASGSIFRFYTMGWYRPATGKERELVATISRGGSTNYADSVKGRFTISRDNAKNSVSLQMNSLKPEVTGVYYCNFGALYSTYWGYGYDYWGQGTQVTVSS	high polyreactivity
QVHLVESGGGLVQAGGSLRLTCSASGFTFSTYAMGWYRPAPGKESEMVAVISWNGGSTYYADTVKGRFTISRYNAKNTVYLQMNSLKTEDTAVYYCAARGSFKKGYWGQGTQVTVSS	high polyreactivity
QVHLVESGGGLVQAGGSLRVSCAASGSIFLDNAMGWYRQAPGKERELVADISYSGGSTYYADSVKGRFTISRDNAKNTVYLQMISLKPEDTAVYYCAAGVQLTVPPLRSSVTEYDYWGQGSQVTVSS	low polyreactivity
QVHLVESGGGLVQAGGSLRVSCAASGSIFPDNAMGWYTQAPGKERELVAAITFSGGRTYYADSVKGRFTISRDNAKNTVYLQMNSQKPEDTAVYYCATAKGVKLYRYPDYSGYYPYDYWGQGTQVTVSS	high polyreactivity
QVHLVESGGGLVQAGGSLSLSCAASGFTYTSYAMGWYRQAPGTEREFVAAIRRSGSGTYYADSVKGRFTISRVNAKNTVYLQMNSLNPEDTAVYYCAVVPPRLYYHYDYWGQGTQVTVSS	high polyreactivity
QVHLVESGGGLVQAGVSLRLSCAASGSIFEGNGMGWYRQAPGKERELVAAITFRSGSTYYADSVKGRFTNSRDNAKNTVYLQMNSLKPEDTAVYYCAADEYYQVSAYDYWGQGTKVTVSS	low polyreactivity
QVHLVESGGGLVQAGVSLRLSCPASGIIFWFYAMGWYRQSPGKERQLVAAISGDGDSTYYADSVKGRFTISRDNAKNTVYLQMNSLKPEDTAVYYCAAEWDPVFATDEDDYWGQRTQVTVSS	low polyreactivity
QVHLVESGGGLVQEGGSLRLTSAASGITFVRNTLGWYRQAPGKERELVAAIDSGGNTYADSVKGRFTITRDNAKNTVYLQMNSLKPEDTAVYFCAVDGGEVSSYGYWGQGTQVTVSS	low polyreactivity
QVHLVESGGGLVQSGGSLRLSCAASGRIFYYNAMGWYRQAPGKERELVAAITSSSGSSTYYADSVKGRFTISRDNAKNTVYLQMNSLKPEDTAVYYCAADATFIIRYLSRSDYWGQGTQVTVSS	low polyreactivity
QVHLVESGGPLVQAGGSLRLSCAASGYTFWGNAMGWYRQAPGKERELVAGITGSGVSTYYADSVKGRFTISRDNAKNTVYLQMNNLKPEDTAVYYCARRVVFAHKYATSYFLLEYGYWGQGTQVSVSS	low polyreactivity
QVHLVESGGRLVQAGGSIRLSCAASGLTYGSYAMGWYRQAPGKERELVAAIYQSGGSTYYADSVMARFTISRDNANNTVYLQMNRLKPEDTVVYYCNAEAWVTLDWWQWVAYDFWGQGTQVTVSS	high polyreactivity
QVHLVESGGRLVQAGGSLRLSCAESGFTFGSNVKGAYRQAPGKEREFVDAITSSGRTKYADSVKGRFTISRDNAKNTVYLQMNSLKPEDTAVYYCAARPSQWNYDYRRVYYWVQGTQVTVSS	high polyreactivity
QVHLVESGGVLVQAGGSLRLSCAASAGNFDTYAMGRYRQAPGKEREMVADITWSGGSTYYADSVKGRFTISRDNAKNTVYLQMNSLKPEDTAVYYCNADDPSKLGYEPDYWGQGTQVTVSS	low polyreactivity
QVHLVESGGVLVQAGGSLRLSCAASGFTFNRYAMGWYRQAPGKERELVAAITSAGNTYYADSVKARFTNSRDNGKNTVYLQMNSMKPEDTAVYYCLNGRYWRRYDYWGQGTQVTVSS	high polyreactivity
QVHLVESGGVLVQAGGSLRLSCAASGSIFDDYAMGWYRQAPGKERELVAAISSSGTSTYYADSVKGRFTISRDTANNTVYLQMNSLKPEDTAVYYCAARSAILDYWGQGTQVTVSS	low polyreactivity
QVHLVESRGVLVQAGCSLRLSCAASGRIFTDYAMGWYRQAPRKERELVAAISGSGGSTYYADSVKVRFSISRDNAKNNVYLQMNSLKPEDTAVYYCAARVARRYEWGQGTQVTVSS	high polyreactivity
QVHLVESRGVLVQAGGSLRLSCAASGRTFGYYAMGWYRQAPGKERELVAAINGSGSRTYYADSVKGRFTISRDNAKNSVYLQMNSLKPEDSAVYYCAATYPKYQYDYWGQGTQVTVSS	high polyreactivity

Sequence	polyreactivity (PSR sort gate)
QVHLVESVGGLVQAGGSLRLSCAASGYIFGGYAMAWYRQAPGKERELVAAISRSGGSTYYADSVKGRFTISRDNAKNTVYLQINSLKPVDTAVYYCAVRGYTLPYGYWGQGTQVTVSS	high polyreactivity
QVHLVESVGGLVQAGGSLRLSSPASGGTLWVNTMGWYRQAPGKERELVAAISRRGGSTYYADSVKGRFTISRDNAKNTVYLQMNSRKPEDTAVYYCNARENAVSLRDYWGQGTQVTVSS	high polyreactivity
QVHLVESWGGLVQAGGSLRLSCAASGSTFGYNAMGWYRQAPGKERELVAAITSGGSTNYADSVKGRFTISRDNAKNTVYLQMNSLKPEDTAVYYCAKLAADRRSYYWGQGTQVTVSS	high polyreactivity
QVHLVQSGGGLVQAGGSLRLSCAASGSILYFYAKGWYRQAPGKERELVAAISWTGGSTYYADSVKGRFTISRDNAKNTVYLQMNSLKPEDTAVYYCAAELWYEGYDYWGQGTQVTVSS	high polyreactivity
QVHLVVSGGGLVQAGRSLRLICAASGSTFKAYAMGWYRQAPGKERELVAAITRRGTSTYYADSVKGRFTISRDNAKKTVYLQMNSLKPEDTADYYSNAKYVSDRSSAVSFDYWGQGTQVTVSS	low polyreactivity
QVHQQESGGDLEQAGGSLRLSCTASGTISDVRFMGWYRQAPGKERELVATISYVTITYYADSVKGRFTISRDSEKHRVSADDEHETGRYRGVFLLYYWGLGTQVTVSS	low polyreactivity
QVHRVESGGGLVQAGGSLRLSCDASGNIFYDYAMGWYRQGPGKERELVAAIDLSDGSTYYSDSVKGRFTISRDNAKNTVYFQMNSLKPDDTAVYYCAADIIAAWTSDYYYWGQGSQVTVSS	high polyreactivity
QVHRVESGGGLVQAGGSLRVSCAATGINFSDYAMGWYRQEPGKERQLVAAITGGGSTYYADSVKGRFTISRDNAKNTVYLQMNSLKPEDTAVSYCNAVWARLWIRSTEVDYRGQGTQVTVSS	low polyreactivity
QVKHVESGGGLVQAGCILRLSCSASGSTFARYAMGWYRQSPGKERELVAGISQSGGTTYYADSVKGRFTISRDNEKNTVYLQMNSLKPEDTAVYYCAARRWVAYTLEYWGQGTQVTVSS	high polyreactivity
QVKIVESGGGLVQAGGSLRLSCAASGGIFNWYAMGWYRPAPGKERELVAAITQSGGSTYYADSVKGRFTISRDNAKNTEYLQMNSLKPEDTAVYYCNKDQEKFWTAFNTIGRAREYDYWGQGTQVTVSS	low polyreactivity
QVKLEESGGGLVQAGGSISLSCAASGSIFFWYTMGCYRQAPGKERELVATITGSGSSTTYADSVKGRFTISRDNAKNTVYLQMNSLKPEDTAVYYCAAADIIDHSFTYDYWGQGTQVTVSS	low polyreactivity
QVKLEESGGGLVQAGGSLRLSCAASGSTFPGNAMGSYRQAPGKERELVAAINWSGDSTYYADSVKGRFTNSRDKPKNTVYLQMNSLTPEDTAVYYCAAYGDGYYYWGQGTQVTVSS	low polyreactivity
QVKLQESGGSHVQAGGSLRLSCAASGFIFARNYIGWYRQAPCKERELVAGIGVRASTNYADSDKGRFTISRDNAKNSVYLQMNSLEPEDTAVYYCAVGDTVLGYHYYWGQGTQVTVSN	low polyreactivity
QVKLVDSGGGLVQAGGSLRLTCAASGRTLGRNGMGWYRQDPGKERELVAAISLSGGRSYADSVKGRFTISRDNAKNSVYLQMNSLKPEDTAVYYCAKVGYSRRYAYNVYYWGQGTQLTVSS	low polyreactivity
QVKLVESAAGLVQPGGSHRLSCAASGRIFSYYAMGWSRQAPGKDRELVAAISRTGGTTYYADSVKGRFTSSRDNAKNTVYLQMNSLKPEDTAVYYCNAVKAPYLSYDYWGKGTQVTVSS	high polyreactivity
QVKLVESGGGLDQAGGSLRLSCAASGRTFGSYTMGWYRQAPGKERELVAAITSGGRTNYADSVKGRFTISRDNAKNTVYLQMNSLKPEDTAVYYCAAGWRGGRYRYFAYDYWGQGTQVTVSS	high polyreactivity
QVKLVESGGGLVQAGGRLSLSCAASGLTLSGNAMGWYRQAPGKDRELVAAITGRGGSTTYADSVKGRFTISRDNAKNTVYLQMNSVKPEDTAVYYCAATRYSWNNRVSRRHRYEYWGQGTQVTVSS	high polyreactivity
QVKLVESGGGLVQAGGSLLLSCAASGITFSRNAMGLYREAPGKERELVAAINWTGGNTYYADSVKGRFTISRDNAKNTVYLQMISMKPEDTAVYYCAAERRCFVWGLGYWGQGTQVTVSS	low polyreactivity
QVKLVESGGGLVQAGGSLLLSCDASGIIFKYYAMGWYRQAPGKERELVARITARGGRTYYADSVKGRFTISRDNAKNTVYLQMNSLKPEDTAFYYCAKKLRGWHTIITDYDYWGQGTQLTVSS	low polyreactivity
QVKLVESGGGLVQAGGSLRISCAASVSIFPVYAMGWYRQAPGKERELVAAISSRGGRTYYADSVKGLFTISRDNAKNTVYLQMNSLKPEDNAVYYFATDYSTYYRLPSQYDYWGQGTQVTVSS	low polyreactivity
QVKLVESGGGLVQAGGSLRLICAASGFTFRYYTMGWYRQAPGKARELVAAISRSSGSRTYYADSVKGRFTISRDNAKNTVYLQMNSLKPEDTAVYYCNADPAYQFDYWGQGTQVTVSS	high polyreactivity
